From patent EP4647443A1 (Max-Planck-Gesellschaft zur Förderung der Wissenschaften …, dated 2025)
Residue numbers refer to the chain shown, from its start.

T1: S. aureus gamma-hemolysin component A (HlgA) (Staphylococcus aureus, UniProt P0A071 30-309)
T1 sequence: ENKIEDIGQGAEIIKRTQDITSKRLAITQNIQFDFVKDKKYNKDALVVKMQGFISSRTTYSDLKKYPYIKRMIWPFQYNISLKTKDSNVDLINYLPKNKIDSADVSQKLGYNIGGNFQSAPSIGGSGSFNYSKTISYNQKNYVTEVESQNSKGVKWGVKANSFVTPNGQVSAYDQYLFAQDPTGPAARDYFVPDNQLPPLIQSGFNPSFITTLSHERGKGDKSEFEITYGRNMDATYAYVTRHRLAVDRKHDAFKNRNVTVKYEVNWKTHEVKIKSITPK

T2: S. aureus gamma-hemolysin component B (HlgB) (Staphylococcus aureus, UniProt P0A075 27-325)
T2 sequence: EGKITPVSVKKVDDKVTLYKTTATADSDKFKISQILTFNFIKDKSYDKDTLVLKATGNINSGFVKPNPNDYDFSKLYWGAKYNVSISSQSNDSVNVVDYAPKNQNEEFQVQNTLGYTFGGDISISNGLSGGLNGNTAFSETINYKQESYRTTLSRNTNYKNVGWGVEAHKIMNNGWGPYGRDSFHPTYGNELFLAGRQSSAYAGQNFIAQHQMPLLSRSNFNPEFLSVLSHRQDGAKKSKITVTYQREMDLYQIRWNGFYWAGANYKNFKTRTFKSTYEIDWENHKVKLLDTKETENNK

T3: S. aureus gamma-hemolysin component C (HlgC) (Staphylococcus aureus, UniProt Q07227 30-315)
T3 sequence: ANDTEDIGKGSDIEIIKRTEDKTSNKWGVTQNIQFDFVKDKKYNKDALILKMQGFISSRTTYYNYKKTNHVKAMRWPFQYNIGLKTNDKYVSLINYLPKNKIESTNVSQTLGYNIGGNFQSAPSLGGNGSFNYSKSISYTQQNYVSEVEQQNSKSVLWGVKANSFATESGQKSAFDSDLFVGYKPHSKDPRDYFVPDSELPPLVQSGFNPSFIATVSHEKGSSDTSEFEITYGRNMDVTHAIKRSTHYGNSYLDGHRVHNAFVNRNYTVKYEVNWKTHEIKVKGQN

B1: Bm31A09 (VHH)
VHH: QVQLVQSGGGLVQAGGSLRLSCAASGSTGSIYVMGWFRQAPGKQRELVASITRGEGSANYADSVKGRFTISRDNAKNTLYLQMNSLKPEDTAVYYCHADTGLGDYSDYAPHGYKYDYWGQGTQVTVSS
B2: Bm31D02 (VHH)
VHH: B1 VHH with Q6E
B3: Bm29D07 (VHH)
VHH: QVQLVESGGGLVQPGGSLRLSCTASSIIVSYYAIGWFRQAPGKGREGVSRITVPAGNLYYADSVKGRFSITRDDVKNTVYLQMNSFQVEDTATYYCAVSYGDSWVDPSYVDHWGQGIQVTVSS
B4: Bm31A08 (VHH)
VHH: QVQLVESGGGLAQPGGSLTLSCAASGVVWSKYVMSWVRQVPEKGFEWVSGIKSDGSDTYYADSVKGRFTVSGDLAKKTVYLQLNSLKPEDTALYYCVLEYGTSWPPRVEEYDYWGQGTQVTVSS
B5: Bm29B04 (VHH)
VHH: QVQLVESGGGLVQAGGSLRLSCAASGFTFDDYVIGWFRQAPGKEREAVACISNGDGVANVPNSMKGRFTISSDSAKNTVHLRADSLKADDTGVYYCAAVKERLCVHEGMEYWGKGTQVTVSS
B6: Bm29B05 (VHH)
VHH: QVQLVESGGGLVQAGGSLRLSCAASGFTFDDYVIGWFRQAPGKEREAVACISNGDGVTNYPNSMRGRFTISSDSAKNTVYLQTDSLKPDDTGVYYCATAKERLCVQGGMEYWGKGTLVTVSS
B7: Bm29E06 (VHH)
VHH: QVQLVESGGGLVQPGGSLRLSCTASGVSLYDFAVGWFRQAPGKEREGVSCSSSRDRSEYYRDSVKGRFDIVRDNLKNIIYLQMDNLTIEDTAVYFCAADSQPYPCSLGSLERYDSWGQGTQVTVSS
B8: Bm29F05 (VHH)
VHH: B7 VHH with F37W, S51T, D69T, I78T, N85S, T120I
B9: Bm29H04 (VHH)
VHH: QVQLVESGGGLVQPGGSLRLSCTASGVSLDDFAIGWFRQAPGKEREGVSCSSSRDRSEYYRDSVKGRFTISRDSQKNTVDLQMNSLTIEDTAVYYCAADPQPYPCSVGSLDRYNSWGQGTLVTVSS
B10: Bm31F09 (VHH)
VHH: QVQLVESGGALVQPGGSLRLSCAASGFTFDDYVMSWVRQAPGTGLEWVSSIHTASSDTYYADSVKDRFTISTDNAKNTLYLQMNSLKPEDTAVYYCAADKAPLTIATMTRDEYDYWGQGTQVTVSS
B11: Bm31G12 (VHH)
VHH: QVQLVESGGGLVQPGGSLRLSCAAAGFTVDDYVMSWVRQVPGKGREWVSSIHSYSSDTYYADSVKGRFTISTDNAKNTLYLQMNSLKPEDTAVYYCAADKDPLTIATMTRYEYDYWGQGTQVTVSS
B12: Bm29C02 (VHH)
VHH: QVQLVESGGGLVQPGGSLRLSCTASGFTLDDWAIGWFRQAPGKEREGVSCTSSRERSSYYRDSVKGRFTISRDSTSNTVYLQMNELTLEDTAVYYCAADPQPYPCSLGQLGRYTTWGQGTQVTVSS
notes: also called anti-HlgB VHH Bm29C02
B13: Bm32A08 (VHH)
VHH: QVQLVESGGGLVQAGGSLRVSCAASGDWFIINSMAWFRQAPGKQREQVATISHGGIPRYADSVKGRFTISRDNSKGAVYLQMNNLKSDDTAMYVCAAGGLDYGFPDPTPEEFDYWGRGTQVTVSS
B14: Bm32F03 (VHH)
VHH: B13 VHH with N73D, G76D
B15: Bm32B07 (VHH)
VHH: QVQLVESGGGLVQTGGSLRLSCATSGRISSIYAMPWFRQAPGKEREFVAAISWHTDLAYYADSVKGRFTISKDNAKNTVYLQMNSLKPEDTAVYYCNIPSKEEYDRNYYYPTGGSWGQGTQVTVSS
B16: Bm32D01 (VHH)
VHH: B15 VHH with A58T, G66D, N77A, S85N, K87Q, I98V, E103Q, N107T, Y108S
B17: Bm32A03 (VHH)
VHH: B15 VHH with G10A, A23V, R27S, D56N, N84D, V93T, I98V, N107T, Y108S
B18: Bm31B04 (VHH)
VHH: QVQLVESGGGLVQPGGSLRLSCAASGSSFSIYGMSWYRQAPGNQRELVALINVGDWTTYADSVKGRFTISRDSAKNTVYLQMNSLKPEDTAVYYCKADLSVSGSSFIRTYWGQGTQVTVSS
B19: Bm31A04 (VHH)
VHH: QVQLVQSGGGLVQPGGSLRLSCAASESISNIYVMGWFRQAPGKQRELVAAITSSNNTNYADSVKGRFTISRDNAKNTVYLQMNSLKPEDTAVYYCNADWGLGGYSDYGEYDYWGQGTQVTVSS
B20: Bm31G04 (VHH)
VHH: QVQLVESGGGLVQPGGSLRLSCAASGITFTFYDMGWYRQAPGKQRELVATISISSSTTYADSVKGRFTISRDNAKNTVYLQMNSLKPEDTAVYYCNAQHVDSDYLAGYDYFGQGTQVTVSS
B21: Bm31G03 (VHH)
VHH: B20 VHH with P14A, T28I, T30S, L47V, S55G, S56R, N73D, Y94I
B22: Bm31D04 (VHH)
VHH: B20 VHH with T28I, T30D, T50G, S55G, V78I, Q98H, A106R

Assays:
[1] = molecular target: T1, S. aureus gamma-hemolysin component A …; experiment: BLI, biotinylated VHH on streptavidin sensor, HlgA in solution
[2] = molecular target: T2, S. aureus gamma-hemolysin component B …; experiment: BLI, biotinylated VHH on streptavidin sensor, HlgB in solution
[3] = molecular target: T3, S. aureus gamma-hemolysin component C …; experiment: BLI, biotinylated VHH on streptavidin sensor, HlgC in solution

Row | Binder | Kd [1] [nM] | Kd [2] [nM] | other results
1 | B1 | 0.05 |  | 
2 | B2 | 0.07 |  | 
3 | B3 |  | ≤ 0.01 | 
4 | B4 | ≤ 0.01 |  | 
5 | B5 |  | ≤ 0.01 | 
6 | B6 |  | ≤ 0.01 | 
7 | B7 |  | 0.03 | 
8 | B8 |  | 0.02 | 
9 | B9 |  | 0.06 | 
10 | B10 | 0.09 |  | 
11 | B11 | 0.025 |  | 
12 | B12 |  | 0.01 | 
13 | B13 |  |  | Kd [3]: 0.045 nM
14 | B14 |  |  | Kd [3]: 0.85 nM
15 | B15 |  |  | Kd [3]: 0.045 nM
16 | B16 |  |  | Kd [3]: 0.03 nM
17 | B17 |  |  | Kd [3]: 0.025 nM
18 | B18 | ≤ 0.01 |  | 
19 | B19 | 0.06 |  | 
20 | B20 | 0.025 |  | 
21 | B21 | 0.015 |  | 
22 | B22 | 0.05 |  | 
